This note sets out measurements from patent publication US20250042970A1 (AURINIA PHARMACEUTICALS, published 2025).

Ends that are not written are not given here.

The target of assay [1] is T1, FLAG-tagged human BAFF (human, UniProt Q9Y275 134-285, limits assumed).
T1 construct: used in BIACORE (Ex. 9) and KINEXA (Ex. 11); also called huBAFF
The assay can be described thus: KinExA. The protocol: (§1) Equilibrium measurements were performed using FLAG-tagged, recombinant huBAFF and huAPRIL ligands. Fixed ligand concentrations of human BAFF or human APRIL were incubated with serial dilutions of the variant BCMA ECD-Ig fusion polypeptides, and free ligand was detected in a KINEXA 3200 Instrument. variant BCMA ECD-Ig fusion polypeptides were first diluted in equilibration buffer (1×PBS, pH 7.4, 1 mg/ml BSA) to a range of concentrations from 10 nM to 100 fM. The linear portion of the dilution series was typically 2-fold. Ligands were diluted in equilibration buffer to fixed concentrations ranging from 5 to 20 pM and then incubated with the variant BCMA-Ig dilutions in total reaction volumes ranging from 4.5 to 15 ml. Samples were incubated at room temperature for 48-72 hours to reach equilibrium. For each data point, a fresh column of 850 μl of bead slurry coated with Variant BAv-238475-Ig was introduced into the KINEXA flow cell. Equilibrated samples ranging from 1 to 5 ml reaction volume were injected at a flow rate of 0.25 ml/min. […] The DyLight 649 fluorescent signal was detected using the red filter set (620/30 nanometer excitation filter, 670/40 nanometer emission filter, 645 nanometer dichroic filter) on the KinExA instrument and converted to a voltage signal that was directly proportional to the concentration of free ligand in the equilibrated sample.
(§2) The various fusion proteins described above were expressed and purified as described previously (Examples 2 and 3 for the CET1019AS based plasmids and Examples 7 and 8 for the pcDNA based plasmids). […] The BAv9-1-Ig Fc proteins typically exist in solution as a dimeric fusion protein. The purified fusion proteins were assayed for binding activity using BIACORE (Example 9) and KINEXA (Example 11) assays.
(In general: Kinetic exclusion samples the free partner from a solution-phase mixture.)

Assay [2] has as its target T2, FLAG-tagged recombinant human APRIL (human, UniProt O75888 105-250).
T2 construct: KINEXA ligand; also called huAPRIL
T2 sequence: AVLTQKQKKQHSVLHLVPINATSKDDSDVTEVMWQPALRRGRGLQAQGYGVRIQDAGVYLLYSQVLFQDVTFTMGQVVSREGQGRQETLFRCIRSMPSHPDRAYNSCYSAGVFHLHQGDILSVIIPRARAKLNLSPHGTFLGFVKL
The assay can be described thus: KinExA. The procedure:
as §1, §2

Assay [3] has as its target T1, FLAG-tagged human BAFF. The assay can be described thus: BIACORE SPR. The procedure:
(§3) For human BAFF, cynomolgus monkey APRIL, and mouse APRIL measurements, mouse monoclonal antibody (IgG1) anti-FLAG M2 (Sigma Aldrich, Cat. No. F1804) was immobilized on CM3 sensor chips (GE Healthcare, Cat. No. BR-1005-41) according to the manufacturer's protocol. Antibody was diluted to 30 μg/ml in immobilization buffer (10 mM pH 5±0.20; GE Healthcare; GE Healthcare, Catalog No. BR-1003-51). […] Unreacted sites were quenched with 35 μl of 1M ethanolamine-HCl, pH 8.5 (GE Healthcare, GE Healthcare, Cat. No. BR-1000-50). This procedure typically yielded 3,000-4,000 response units (RU) of coupled antibody.
(§4) The fusion polypeptides were diluted in HBS-EP buffer and flowed over ligand-coated sensor chips. The variant BCMA-Ig and surrogate control fusion proteins were injected at three concentrations (1.5 nM, 15 nM, and 150 nM at 30 μl/min for 2 minutes per association phase) in a single binding cycle, followed by a 20 minute incubation with HBS-EP buffer containing no protein at the same flow rate. A similar protocol was followed for Z-TACI-Ig, except that the injections were at 4.5 nM, 45 nM, and 450 nM.
as §2

The target of assay [4] is T3, FLAG-tagged cynomolgous APRIL (cynomolgus monkey, UniProt A0ACM8R0G4 110-250 (rhesus entry)).
T3 construct: FLAG-tagged, expressed with TPA signal peptide; also called cyAPRIL
T3 sequence: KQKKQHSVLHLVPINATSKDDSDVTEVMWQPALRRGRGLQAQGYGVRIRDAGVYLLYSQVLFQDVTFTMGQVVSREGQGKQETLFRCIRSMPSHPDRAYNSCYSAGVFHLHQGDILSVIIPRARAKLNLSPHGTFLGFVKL
In words: BIACORE SPR. The protocol:
as §3, §4, §2
Background: SPR reads the build-up and loss of mass on a sensor chip optically.

Assay [5] has as its target T1, FLAG-tagged human BAFF. In words: BIACORE SPR.
Description: as §3, with “The standard kinetic assay measures binding kinetics of trimeric ligand (e.g., human BAFF, cynomolgus monkey APRIL, mouse BAFF, or mouse APRIL) coated on sensor chips and dimeric analytes (e.g., variant BCMA-Ig fusion proteins) in the mobile phase. […] For” for “For”
as §4
(§5) The analyses described above were performed on protein preparations of representative variant BCMA ECD-Ig fusion polypeptides, as well as the Z-TACI-Ig and [S40G]huBCMA ECD-Ig control fusion polypeptides, and the data is presented in Table 1.
The source holds these as a separate data set.

Assay [6] concerns the target T3, FLAG-tagged cynomolgous APRIL. In words: BIACORE SPR.
Description: as §3, with “The standard kinetic assay measures binding kinetics of trimeric ligand (e.g., human BAFF, cynomolgus monkey APRIL, mouse BAFF, or mouse APRIL) coated on sensor chips and dimeric analytes (e.g., variant BCMA-Ig fusion proteins) in the mobile phase. […] For” for “For”
as §4, §5
The source holds these as a separate data set.

The target in assay [7] is T1, FLAG-tagged human BAFF. In words: BIACORE SPR. The procedure: as §3, §4
(§6) Sequence optimization involved generating revertants from the variant BCMA ECD-Ig molecules using standard site-directed mutagenesis methods such as by SOEing as described herein above. Single as well as multiple revertants from twelve different variant-BCMA-pIg18 were generated, cloned in the pcDNA3.1 vector (Life Technologies, as described in Example 6), expressed and purified as described in Examples 6-8. The resulting proteins were assayed for their binding characteristics using Surface Plasmon Resonance as described in Example 9.
This is another data set of the same source.

For assay [8], the target named is T3, FLAG-tagged cynomolgous APRIL. In words: BIACORE SPR. The procedure: as §3, §4, §6
This is another data set of the same source.

For assay [9], the target named is T1, FLAG-tagged human BAFF. In words: KinExA. The protocol:
as §1
(§7) Table 5 provides the selectivities of exemplary variant BCMA polypeptides with respect to BAFF and APRIL.
The source holds these as a separate data set.

Assay [10] addresses T2, FLAG-tagged recombinant human APRIL. In words: KinExA. The protocol: as §1, §7
This is another data set of the same source.

The target of assay [11] is T1, FLAG-tagged human BAFF. The assay can be described thus: KinExA. The protocol: as §1
(§8) The standard kinetic exclusion assays and data analyses described above were performed on protein preparations of various variant BCMA ECD-Ig fusion polypeptides, as well as Z-TACI-Ig and [S40G]huBCMA ECD-Ig fusion polypeptides. FIG. 8A, FIG. 8B, and Table 4 summarize the binding data for representative variant BCMA ECD-Ig polypeptides and controls in molar concentrations of huBAFF or huAPRIL determined by KINEXA binding assays.
The source holds these as a separate data set.

Assay [12] addresses T2, FLAG-tagged recombinant human APRIL. In words: KinExA. The procedure: as §1, §8
This is another data set of the same source.

B1: BAv9-1-5L-pIg18 (Fc fusion)
chain: AGQCSQNEYFDHLIRACIPCQLRCSSNTPPLTCQRYCNAGVTNSVGGGGS
notes: not shown: PIg18: human IgG2 Fc, Ser at Fc positions 4, 5, 11 (native Cys)
The Kd is the concentration at which binding is half-saturated. For the molecule B1, the Kd in the assay with FLAG-tagged human BAFF [1] stood at 0.301 pM; in [2], 1.26 pM; with FLAG-tagged human BAFF [3] it was 0.0175 nM; in [4], 0.0425 nM.

B2: BAv9-1-5L-pIg22 (Fc fusion, human)
chain: AGQCSQNEYFDHLIRACIPCQLRCSSNTPPLTCQRYCNAGVTNSVGGGGS
modifications: not fully specified (C-terminus); cysteine pairing not given here; also: terminal Fc lysine may be cleaved off ([K278]del)
notes: domain: Fc; terminal lysine may be cleaved off; also called BAv9-1-5L-pIg22 [K278]del; not shown: PIg22: chimeric Fc, CH2 domain of PIg18 (human IgG2 derivative) and CH3 domain of human IgG1
On to B2, for which the Kd with FLAG-tagged human BAFF [1] worked out at 0.864 pM; in assay [2], 0.611 pM; with FLAG-tagged human BAFF [3], 0.0165 nM; in [4], 0.0418 nM.

B3: Variant 50238475-Ig (Fc fusion, human)
chain: AGQCSQNEYYDHLIRACISCQIRCSSNNPPPICQRYCNAGVTNSVKGTNAERKSSVECPPSPAPPVAGPSVFLFPPKPKDTLMISRTPEVTCVVVDVSHEDPEVQFNWYVDGVEVHNAKTKPREEQFNSTFRVVSVLTVVHQDWLNGKEYKCKVSNKGLPAPIEKTISKTKGQPREPQVYTLPPSREEMTKNQVSLTCLVKGFYPSDISVEWESNGQPENNYKTTPPMLDSDGSFFLYSKLTVDKSRWQQGNVFSCSVMHEALHNHYTQKSLSLSPGK
notes: domain: Fc; also called Parent 9; Variant 50238475-PIg18
Regarding B3, the entries for the “fold improvement KD vs control” value (with FLAG-tagged human BAFF [5]; in [6]) were 2.2 fold and 0.2 fold, respectively. Moreover, the “fold improvement over control” value in the assay with FLAG-tagged human BAFF [7] came to 4.7 fold; in assay [8], 0.4 fold.

B4: Variant BAv9-1-Ig (Fc fusion, human)
chain: AGQCSQNEYFDHLIRACIPCQLRCSSNTPPLTCQRYCNAGVTNSVKGTNAERKSSVECPPSPAPPVAGPSVFLFPPKPKDTLMISRTPEVTCVVVDVSHEDPEVQFNWYVDGVEVHNAKTKPREEQFNSTFRVVSVLTVVHQDWLNGKEYKCKVSNKGLPAPIEKTISKTKGQPREPQVYTLPPSREEMTKNQVSLTCLVKGFYPSDISVEWESNGQPENNYKTTPPMLDSDGSFFLYSKLTVDKSRWQQGNVFSCSVMHEALHNHYTQKSLSLSPGK
notes: domain: Fc; also called Variant 9-1-Ig; BAv9-1-pIg18
Take B4: the “fold improvement KD vs control” value was 14.8 fold with FLAG-tagged human BAFF [5] and 0.7 fold in assay [6]. In addition, the “Selectivity for huBAFF (KD APRIL/KD BAFF)” value (shortened to “Selectivity for huBAFF”) with FLAG-tagged human BAFF [9] stood at 0.47 ratio. The “Selectivity for huAPRIL (KD BAFF/KD APRIL)” value (from here on “Selectivity for huAPRIL”) in assay [10] turned out to be 2.1 ratio. In addition, the “fold improvement over control” value in the assay with FLAG-tagged human BAFF [11] turned out to be 533 fold; in assay [12], 0.8 fold.

B5: Variant BAv11-6-Ig (Fc fusion, human)
chain: AGQCSQNEYFDRLLRACIPCQVRCSSNTPPLTCQRYCNAGVTNSVKGTNAERKSSVECPPSPAPPVAGPSVFLFPPKPKDTLMISRTPEVTCVVVDVSHEDPEVQFNWYVDGVEVHNAKTKPREEQFNSTFRVVSVLTVVHQDWLNGKEYKCKVSNKGLPAPIEKTISKTKGQPREPQVYTLPPSREEMTKNQVSLTCLVKGFYPSDISVEWESNGQPENNYKTTPPMLDSDGSFFLYSKLTVDKSRWQQGNVFSCSVMHEALHNHYTQKSLSLSPGK
notes: domain: Fc; also called Variant 11-6-Ig; BAv11-6-PIg18
In the case of B5, the figures for the “fold improvement KD vs control” value (with FLAG-tagged human BAFF [5]; in assay [6]) were 7.6 fold and 0.6 fold, respectively. Moreover, the “Selectivity for huBAFF” value in the assay with FLAG-tagged human BAFF [9] was found to be 1.6 ratio. Besides, the “Selectivity for huAPRIL” value in assay [10] turned out to be 0.62 ratio. In addition, the “fold improvement over control” value is 224 fold with FLAG-tagged human BAFF [11] and 0.1 fold in assay [12].

B6: Variant BAv1-12-Ig (Fc fusion, human)
chain: AGQCSQNEYFDRLVNACIPCQLRCSSNTPPLTCQRYCNAGVTNSVKGTNAERKSSVECPPSPAPPVAGPSVFLFPPKPKDTLMISRTPEVTCVVVDVSHEDPEVQFNWYVDGVEVHNAKTKPREEQFNSTFRVVSVLTVVHQDWLNGKEYKCKVSNKGLPAPIEKTISKTKGQPREPQVYTLPPSREEMTKNQVSLTCLVKGFYPSDISVEWESNGQPENNYKTTPPMLDSDGSFFLYSKLTVDKSRWQQGNVFSCSVMHEALHNHYTQKSLSLSPGK
notes: domain: Fc; also called Variant 1-12-Ig
For B6, the “fold improvement KD vs control” value with FLAG-tagged human BAFF [5] was 9.8 fold; in assay [6], 1.5 fold. Moreover, the “Selectivity for huBAFF” value with FLAG-tagged human BAFF [9] was 0.3 ratio. Moreover, the “Selectivity for huAPRIL” value in [10] is 3.56 ratio. In addition, the “fold improvement over control” value was 231 fold with FLAG-tagged human BAFF [11] and 0.68 fold in assay [12].

B7: Variant BAv8-9-Ig (Fc fusion, human)
chain: AGQCSQNEYFDHLLRACIPCQLRCSSNTPPLTCQRYCNAGVTNSVKGTNAERKSSVECPPSPAPPVAGPSVFLFPPKPKDTLMISRTPEVTCVVVDVSHEDPEVQFNWYVDGVEVHNAKTKPREEQFNSTFRVVSVLTVVHQDWLNGKEYKCKVSNKGLPAPIEKTISKTKGQPREPQVYTLPPSREEMTKNQVSLTCLVKGFYPSDISVEWESNGQPENNYKTTPPMLDSDGSFFLYSKLTVDKSRWQQGNVFSCSVMHEALHNHYTQKSLSLSPGK
notes: domain: Fc; also called Variant 8-9-Ig; BAv8-9-PIg18
As to B7, the “fold improvement KD vs control” value with FLAG-tagged human BAFF [5] is 12.6 fold; in [6], 0.7 fold. In the assay with FLAG-tagged human BAFF [9], the “Selectivity for huBAFF” value is 0.0075 ratio. Further, the “Selectivity for huAPRIL” value in [10] turned out to be 134 ratio. Besides, the “fold improvement over control” value with FLAG-tagged human BAFF [11] amounted to 75.3 fold; in assay [12] it was 7.1 fold.
